Measured values published in article PMC5727262, “Molecular mechanism of K65 acetylation-induced attenuation of Ubc9 and the NDSM interaction” (Scientific Reports, 2017).

Columns and labels:
[1] = molecular target: Ac-Ubc9K65 (Ubc9 acetylated at K65) (UniProt P63279); experiment: ITC; 2 μl additions of peptide to 200 μl of WT Ubc9 or Ac-Ubc9K65; 25 °C; pH 8.0, 20 mM potassium phosphate, 100 mM NaCl; iTC200; fitted assuming 1:1 binding stoichiometry
Ubc9 (wild type) = Ubc9 (wild type) (UniProt P63279); experiment: as above
Sequence of Ubc9 (wild type) (P63279 whole entry): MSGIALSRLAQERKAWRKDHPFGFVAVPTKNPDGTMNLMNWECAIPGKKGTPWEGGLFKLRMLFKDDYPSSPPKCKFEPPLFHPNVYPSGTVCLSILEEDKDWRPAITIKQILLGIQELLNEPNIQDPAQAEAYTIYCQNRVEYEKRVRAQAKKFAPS

Sequence of Ac-Ubc9K65 (Ubc9 acetylated at K65) (P63279 whole entry): as above

Kd [1] [µM]	Kd (Ubc9 (wild type)) [µM]	Substance
80	56	Calpain2 NDSM peptide
103	70	Elk1 NDSM peptide (from UniProt P19419 242-261)
13	13	RanGAP1 peptide (consensus sumoylation motif) (from UniProt P46060 517-536)
